US7888090B2, “Mutants of O6-alkylguanine-DNA alkyltransferase” (Ecole Polytechnique Federale de Lausanne, priority 2004, dated 2011)

Columns and labels:
[1] = Activity assay with biotinylated O^6-benzylguanine (BG-Bt), Western blotting; type: biochemical; details: statement in words
Summary of the method: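 Purified mutant GST-AGT (0.2 μM) reacted with 1 μM biotinylated O^6-benzylguanine in 50 mM HEPES pH 7.2, 1 mM DTT at room temperature. Time-point aliquots quenched with O^6-benzylguanine in SDS buffer. Biotinylated protein detected by Western blot with neutravidin-peroxidase, band intensity quantified.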

[2] = Competition of N^9-substituted and N^9-unsubstituted O^6-benzylguanine substrates; type: biochemical
Method: Such N^9-substituted O^6-alkylguanine substrates are the natural substrates of the wild type AGT. The ability of wild type AGT or mutant AGT to react with N^9-modified O^6-alkylguanine substrates is measured as the rate of its reaction with such substrates, e.g. with the low molecular weight N^9-cyclopentyl-O^6-benzylguanine in presence of biotinylated N^9-unsubstituted O^6-alkylguanine substrates in competition experiments. Subsequently, samples are subjected to Western blotting and detection with streptavidin derivates to obtain kinetic constants for these substrates. Alternatively, the reactivity towards such substrates is measured as the inhibition of the reaction of AGT with BG-Cy3. The reaction of AGT with BG-Cy3 is followed by an increase of Cy3 fluorescence intensity upon binding to AGT, after preincubation or in direct competition with the N^9-modified O^6-alkylguanine substrate.
Selected AGT mutants are subcloned into pGEX2T, expressed, purified and characterized as described in Example 1. Discrimination between N^9 substituted and N^9 unsubstituted O^6-benzylguanine substrates is evaluated by competition experiments for purified mutated GST-AGT in vitro with N^9-substituted and N′-unsubstituted O^6-benzylguanine. Aliquots of 0.2 μM GST-AGT are incubated with varying concentrations of N^9 substituted substrate (0, 0.5, up to 100 µM) and 0.5 µM biotinylated O^6-benzylguanine (BG-Bt, substance 3a of Juillerat et al., Chem Biol 10:313-317, 2003) in 50 mM HEPES pH 7.3 and 1 mM DTT at room temperature. After 45 min reactions are quenched by the addition of SDS-Laemmli buffer and heat denaturation. Samples are subjected to SDS-PAGE and Western blotting analysis (neutravidin-peroxidase conjugate (PIERCE), Renaissance reagent plus (NEN)). The intensity of the corresponding bands is quantified by a Kodak Image Station 440.

[3] = Solubility in vitro after overnight incubation; type: physicochemical; details: compared to wild type AGT
Method: The in vitro solubility of wild type AGT and the AGT mutant is measured by determining the amount of protein that remains in the soluble fraction after overnight incubation of purified samples at 4° C. or up to 37° C. at one or several concentrations established in a suitable buffer (e.g. 100 mM NaCl, 20 mM Tris, pH 8.0, 20% glycerol, 1 mM DTT).
The solubility of AGTM or an AGTM fusion protein in vitro is measured by determining the amount of protein that remains in the soluble fraction after overnight incubation of purified samples at 4 or up to 37° C. at one or several concentrations established in a suitable buffer (e.g. 100 mM NaCl, 20 mM Tris, pH 8.0, 20% Glycerol), and it is compared to that of wild type AGT or to known AGT mutants such as “PGEG-hAGT” (Juillerat et al., Chem Biol 10:313-317, 2003).

[4] = Reactivity towards N^9-modified O^6-benzylguanine derivatives (preblocking, BG-Cy3 assay); type: biochemical; details: 100 µM BG, 15 min
Method: FIG. 3: Reactivity of AGT mutants with N^9-modified BG derivatives. 10 µM AGTM (grey bars) or PGEG-hAGT (black bars) were preblocked with 100 µM N^9-modified BG derivatives (see list below), and subsequently labeled with 20 µM BG-Cy3. After 1 h reaction time, fluorescence intensity (FI) indicated in arbitrary units [a.u.] at 595 nm is measured. The black bold line is set at the reading for condition 1 corresponding to background fluorescence of the fluorophore not attached to protein. Values above this line indicate slow or incomplete reaction with N^9-modified BG-derivative. • 1 Fluorescence of BG-Cy3 without protein; background fluorescence. • 2 Reaction with BG-Cy3; no preblocking, positive control. • 3 Reaction with BG-Cy3, preblocked with 100 µM BG. • 4 Reaction with BG-Cy3, preblocked with 100 µM N^9-isobutyl-O^6-benzylguanine. • 5 Reaction with BG-Cy3, preblocked with 100 µM N^9-propyl-O^6-benzylguanine. • 6 Reaction with BG-Cy3, preblocked with 100 µM N^9-cyanomethyl-O^6-benzylguanine.
Reactivity of AGT towards N^9-modified O^6-benzylguanine derivatives: The experiment is based on the BG-Cy3 assay. Upon reaction of AGT with BG-Cy3, an increase of fluorescence emission intensity of Cy3 by a factor 2-3 can be observed. […]

B1: AGTM: AGT mutant Cys62Ala, Gln115Ser, Gln116His, Lys125Ala, Ala127Thr, Arg128Ala, Gly131Lys, Gly132Thr, Met134Leu, Arg135Ser, Cys150Asn, Ser151Ile, Ser152Asn, Asn157Gly, Ser159Glu, truncated after … (protein, UniProt P16455 1-207, looked up, variant C62A Q115S Q116H K125A A127T R128A G131K G132T M134L R135S C150N S151I S152N N157G S159E del183-207)
Methylated-DNA--protein-cystei …: MDKDCEMKRTTLDSPLGKLELSGCEQGLHEIKLLGKGTSAADAVEVPAPAAVLGGPEPLMQATAWLNAYFHQPEAIEEFPVPALHHPVFQQESFTRQVLWKLLKVVKFGEVISYSHLAALAGNPAATAAVKTALSGNPVPILIPCHRVVNINGAVGGYEGGLAVKEWLLAHEGHRLGKPGLG
modifications: His tag
activity towards O^6-benzylguanine substrates [1]: retains the reactivity
activity towards O^6-benzylguanine substrates ([1]; Gln115Ser, Gln116His, Lys125Ala, Ala127Thr, Arg128Ala, Gly131Lys, Gly1): increased reactivity
reduced reactivity with N^9-substituted O^6-alkylguanine derivatives (factor) [2]: ≥ 10
reduced reactivity towards O^6-alkyl-N^9-deoxyribosylguanine or N^9-cyclopentyl-O^6-benzylguanine ([2]; comparator not stated): at least 100 fold
solubility in vitro [3]: at least fourfold increased
AGT remaining active after preblocking with BG [4]: 5%
